Measurements: patent publication US20250057970A1, “TROP2 TARGETING ANTIBODY-DRUG CONJUGATE, AND PREPARATION METHOD AND USE THEREFOR” (priority 2020, published 2025)
Like-named read-outs stand apart in the source and are kept apart here. Numbered stars: 1 amine (or outer) side, 2 acyl side, 3 side chain; on linkers, the order of the positions; unused ones are H or OH. Square brackets hold non-standard residues; d marks the D form. Peptide text beside a SMILES is read from it. * marks the point of attachment. Exatecan = CC[C@@]1(O)C(=O)OCc2c1cc1n(c2=O)Cc2c-1nc1cc(F)c(C)c3c1c2[C@@H](N*)CC3; Hexanoyl(6-maleimido) = O=C1C=CC(=O)N1CCCCCC(=O)*; NHCH2OCH2CO = O=C(COCN[*:1])[*:2]

Tests used:
cathepsin B = cathepsin B (Homo sapiens, UniProt P07858); conditions: for speed of enzyme digestion: pH range 5.0 to 7.0
Source text: Samples were taken at different time points and entered into a high-performance liquid chromatography-mass spectrometry instrument. The external standard method (with DXD as the external standard) was used to determine the release percentage of the drug.

NCI-N87 cell line = test: Killing activity on NCI-N87 before and after cathepsin B digestion; format: cell-based, human; conditions: NCI-N87, 144 hours, read-out: IC50 (based on SN-38 equivalent)
Protocol: NCI-N87 cell line was selected as the experimental cell lines. After the sample was incubated in cathepsin B system (100 mM sodium acetate-acetic acid buffer, 4 mM dithiothreitol, pH 5.0) at 37° C. for 4 hours, the obtained sample was diluted with culture medium to different concentrations. 8 concentrations (1.5 to 10-fold dilution) were set from 70 nM to 0.003 nM of SN-38 concentration. […] The IC50 value was calculated by reading the […] data after chemical luminescent staining with CellTiter-Glo® Luminescent Cell Viability Assay.

[1] = target: T1, Tumor-associated calcium signal transducer 2 (UniProt P09758 27-323, limits assumed); test: cell-based or functional assay
T1 sequence (looked up): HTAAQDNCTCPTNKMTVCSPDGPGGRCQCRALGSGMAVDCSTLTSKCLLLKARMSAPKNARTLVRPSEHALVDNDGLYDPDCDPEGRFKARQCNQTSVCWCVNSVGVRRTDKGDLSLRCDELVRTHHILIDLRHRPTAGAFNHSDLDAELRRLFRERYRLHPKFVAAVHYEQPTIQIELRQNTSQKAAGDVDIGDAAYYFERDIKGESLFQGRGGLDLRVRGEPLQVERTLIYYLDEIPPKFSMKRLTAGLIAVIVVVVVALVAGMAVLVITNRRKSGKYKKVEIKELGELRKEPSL

## CC[C@@]1(O)C(=O)OCc2c1cc1n(c2=O)Cc2c-1nc1cc(F)c(C)c3c1c2[C@@H](NC(=O)COCNC(=O)CNC(=O)[C@H](Cc1ccccc1)NC(=O)CNC(=O)CNC(=O)CCCCCN1C(=O)C=CC1=O)CC3 [GGFG-Dxd, reference compound] ({Hexanoyl(6-maleimido)}-GGFG[NHCH2OCH2CO]-Exatecan)
Cathepsin B
  speed of enzyme digestion: slow speed of enzyme digestion

## CC[C@@]1(O)C(=O)OCc2c1cc1n(c2=O)Cc2c-1nc1cc(F)c(C)c3c1c2[C@@H](NC(=O)COCN(CCS(C)(=O)=O)C(=O)OCc1ccc(NC(=O)[C@H](C)NC(=O)[C@@H](NC(=O)CCCCCN2C(=O)C=CC2=O)C(C)C)cc1)CC3 [LE14]
Cathepsin B; pH 5.0, 0 h
  Percentage of drug release in the sample: 13.82%
Cathepsin B; pH 5.0, 1 h
  Percentage of drug release in the sample: 96.0%
Cathepsin B; pH 5.0, 2 h
  Percentage of drug release in the sample: 98.35%
Cathepsin B; pH 5.0, 3 h
  Percentage of drug release in the sample: 99.12%
Cathepsin B; pH 5.0, 4 h
  Percentage of drug release in the sample: 99.21%
Cathepsin B; pH 5.0, 5 h
  Percentage of drug release in the sample: 99.45%
Cathepsin B; pH 5.0, 6 h
  Percentage of drug release in the sample: 98.23%
Cathepsin B; pH 6.0, 0 h
  Percentage of drug release in the sample: 14.32%
Cathepsin B; pH 6.0, 1 h
  Percentage of drug release in the sample: 96.12%
Cathepsin B; pH 6.0, 2 h
  Percentage of drug release in the sample: 96.75%
Cathepsin B; pH 6.0, 3 h
  Percentage of drug release in the sample: 98.52%
Cathepsin B; pH 6.0, 4 h
  Percentage of drug release in the sample: 98.45%
Cathepsin B; pH 6.0, 5 h
  Percentage of drug release in the sample: 98.92%
Cathepsin B; pH 6.0, 6 h
  Percentage of drug release in the sample: 99.15%
Cathepsin B; pH 7.0, 0 h
  Percentage of drug release in the sample: 16.59%
Cathepsin B; pH 7.0, 1 h
  Percentage of drug release in the sample: 98.32%
Cathepsin B; pH 7.0, 2 h
  Percentage of drug release in the sample: 98.45%
Cathepsin B; pH 7.0, 3 h
  Percentage of drug release in the sample: 99.12%
Cathepsin B; pH 7.0, 4 h
  Percentage of drug release in the sample: 99.12%
Cathepsin B; pH 7.0, 5 h
  Percentage of drug release in the sample: 99.87%
Cathepsin B; pH 7.0, 6 h
  Percentage of drug release in the sample: 99.47%
Cathepsin B
  speed of enzyme digestion: quickly enzymatically digested

## CCc1c2c(nc3ccc(O)cc13)-c1cc3c(c(=O)n1C2)COC(=O)[C@]3(O)CC [SN-38, 7-ethyl-10-hydroxycamptothecin, reference compound]
NCI-N87 cell line; After Enzyme Digestion (cathepsin B, pH 5.0, 37° C., 4 hours)
  IC50: 7.43 nM
NCI-N87 cell line; Before Enzyme Digestion
  IC50: 7.18 nM

B1: FDA018-LE12 (antibody, human IgG1, kappa, V domains shown)
VH: QVQLQQSGSELKKPGASVKVSCKASGYTFTNYGMNWVKQAPGQGLKWMGWINTYTGEPTYTDDFKGRFAFSLDTSVSTAYLQISSLKADDTAVYFCARGGFGSSYWYFDVWGQGSLVTVSS
VL: DIQLTQSPSSLSASVGDRVSITCKASQDVSIAVAWYQQKPGKAPKLLIYSASYRYTGVPDRFSGSGSGTDFTLTISSLQPEDFAVYYCQQHYITPLTFGAGTKVEIKR
modifications: linker-drug LE12 (Dxd payload) coupled to cysteine sulfhydryl groups after reduction of the interchain disulfide bonds; DAR 3.90 for the whole antibody; sites not stated
[1]
  IC50 (nM), in vitro killing activity, BXPC3 Cell: 0.68 nM
  IC50 (nM), in vitro killing activity, MDA-MB-468 Cell: 1.03 nM
  IC50 (nM), in vitro killing activity, NCI-N87 Cell: 1.12 nM

B2: FDA018-LE22 (antibody, human IgG1, kappa, V domains shown)
VH: B1 VH
VL: B1 VL
modifications: linker-drug LE22 coupled to cysteine sulfhydryl groups after reduction of the interchain disulfide bonds; DAR 4.00 for the whole antibody; sites not stated
[1]
  IC50 (nM), in vitro killing activity, BXPC3 Cell: 1.69 nM
  IC50 (nM), in vitro killing activity, NCI-N87 Cell: 3.25 nM

B3: FDA018-LE19 (antibody, human IgG1, kappa, V domains shown)
VH: B1 VH
VL: B1 VL
modifications: linker-drug LE19 coupled to cysteine sulfhydryl groups after reduction of the interchain disulfide bonds; DAR 4.13 for the whole antibody; sites not stated
[1]
  IC50 (nM), in vitro killing activity, MDA-MB-468 Cell: 1.03 nM

B4: FDA018-LE14 (antibody, human IgG1, kappa, V domains shown)
VH: B1 VH
VL: B1 VL
modifications: linker-drug LE14 coupled to cysteine sulfhydryl groups after reduction of the interchain disulfide bonds; DAR 4.00 for the whole antibody; sites not stated
[1]
  IC50 (nM), in vitro killing activity, BXPC3 Cell: 0.5 nM
  IC50 (nM), in vitro killing activity, MDA-MB-468 Cell: 0.8 nM
  IC50 (nM), in vitro killing activity, NCI-N87 Cell: 1.08 nM

B5: FDA018-LE15 (antibody, human IgG1, kappa, V domains shown)
VH: B1 VH
VL: B1 VL
modifications: linker-drug LE15 coupled to cysteine sulfhydryl groups after reduction of the interchain disulfide bonds; DAR 4.12 for the whole antibody; sites not stated
[1]
  IC50 (nM), in vitro killing activity, BXPC3 Cell: 0.96 nM
  IC50 (nM), in vitro killing activity, MDA-MB-468 Cell: 0.93 nM
  IC50 (nM), in vitro killing activity, NCI-N87 Cell: 0.98 nM

B6: FDA018-LE21 (antibody, human IgG1, kappa, V domains shown)
VH: B1 VH
VL: B1 VL
modifications: linker-drug LE21 coupled to cysteine sulfhydryl groups after reduction of the interchain disulfide bonds; DAR 4.05 for the whole antibody; sites not stated
[1]
  IC50 (nM), in vitro killing activity, BXPC3 Cell: 1.23 nM
  IC50 (nM), in vitro killing activity, NCI-N87 Cell: 1.23 nM

B7: FDA018-LE16 (antibody, human IgG1, kappa, V domains shown)
VH: B1 VH
VL: B1 VL
modifications: linker-drug LE16 coupled to cysteine sulfhydryl groups after reduction of the interchain disulfide bonds; DAR 4.03 for the whole antibody; sites not stated
[1]
  IC50 (nM), in vitro killing activity, BXPC3 Cell: 1.58 nM
  IC50 (nM), in vitro killing activity, MDA-MB-468 Cell: 1.64 nM
  IC50 (nM), in vitro killing activity, NCI-N87 Cell: 1.35 nM

B8: FDA018-LE13 (antibody, human IgG1, kappa, V domains shown)
VH: B1 VH
VL: B1 VL
modifications: linker-drug LE13 coupled to cysteine sulfhydryl groups after reduction of the interchain disulfide bonds; DAR 4.10 for the whole antibody; sites not stated
[1]
  IC50 (nM), in vitro killing activity, BXPC3 Cell: 1.23 nM
  IC50 (nM), in vitro killing activity, MDA-MB-468 Cell: 2 nM
  IC50 (nM), in vitro killing activity, NCI-N87 Cell: 2.34 nM

B9: FDA018-LE20 (antibody, human IgG1, kappa, V domains shown)
VH: B1 VH
VL: B1 VL
modifications: linker-drug LE20 coupled to cysteine sulfhydryl groups after reduction of the interchain disulfide bonds; DAR 3.88 for the whole antibody; sites not stated
[1]
  IC50 (nM), in vitro killing activity, NCI-N87 Cell: 1.15 nM

B10: FDA018-LE17 (antibody, human IgG1, kappa, V domains shown)
VH: B1 VH
VL: B1 VL
modifications: linker-drug LE17 coupled to cysteine sulfhydryl groups after reduction of the interchain disulfide bonds; DAR 3.98 for the whole antibody; sites not stated
[1]
  IC50 (nM), in vitro killing activity, BXPC3 Cell: 0.62 nM
  IC50 (nM), in vitro killing activity, MDA-MB-468 Cell: 0.82 nM
  IC50 (nM), in vitro killing activity, NCI-N87 Cell: 1.12 nM

B11: FDA018-LS13 (antibody, human IgG1, kappa, V domains shown)
VH: B1 VH
VL: B1 VL
modifications: linker-drug LS13 (SN-38 payload) coupled to cysteine sulfhydryl groups after reduction of the interchain disulfide bonds; DAR 3.97 for the whole antibody; sites not stated
[1]
  IC50 (nM), in vitro killing activity, BXPC3 Cell: 61.3 nM
  IC50 (nM), in vitro killing activity, MDA-MB-468 Cell: 67.4 nM

B12: FDA018-GGFG-Dxd (antibody, human IgG1, kappa, V domains shown)
VH: B1 VH
VL: B1 VL
modifications: linker-drug GGFG-Dxd coupled to cysteine sulfhydryl groups after reduction of the interchain disulfide bonds; DAR 4.03 for the whole antibody; sites not stated
[1]
  IC50 (nM), in vitro killing activity, BXPC3 Cell: 0.61 nM
  IC50 (nM), in vitro killing activity, MDA-MB-468 Cell: 1.2 nM
  IC50 (nM), in vitro killing activity, NCI-N87 Cell: 1.1 nM

B13: FDA018-LE18 (antibody, human IgG1, kappa, V domains shown)
VH: B1 VH
VL: B1 VL
modifications: linker-drug LE18 coupled to cysteine sulfhydryl groups after reduction of the interchain disulfide bonds; DAR 3.96 for the whole antibody; sites not stated
[1]
  IC50 (nM), in vitro killing activity, MDA-MB-468 Cell: 0.86 nM
